± gives the standard deviation of the averaged measurements.
Test system: ATP
Test: switch fluorescence ratio, 500 uM ATP over buffer (Cy3 cluster intensity, sum of 5 cycles each) (fold (ratio)); higher = stronger signal-on switching upon ATP binding; sequences stand for … in TCGTCGGCAGCGTCAGATGTGTATAAGAGACAGTTTTTTTTTTTTTTTTTTTTTTTTT…TC
Details: aptamer strand: ATP DNA aptamer (quencher-CACCTGGGGGAGTATTGCGGAGGAAGG + anchor), 100 nM annealed; ATP concentration: 500 uM
Procedure, shortened: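 The quencher-labelled ATP aptamer, at 100 nM, was annealed to Cy3-labelled switching-strand clusters on a modified Illumina MiSeq flow-cell. The clusters were imaged in selection buffer, then after 15 min with 500 uM ATP at 22 °C, and this buffer/ATP cycle ran five times with NaOH stripping and re-annealing between runs. Per-cluster fluorescence ratios, summed target-cycle over summed buffer-cycle Cy3 intensity, were averaged per switch-domain sequence. Clusters outside 100-1000 RFU were excluded.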
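Note: ATP exposure 15 min at 22 °C before imaging.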

Sequence | switch fluorescence ratio
TAAAGAGTAG | 1 ± 0.042
TAAAGATGAT | 1.01 ± 0.012
TAAAGCCGGT | 1.009 ± 0.0023
TAAAGCGCGG | 1.074 ± 0.0037
TAAAGGAAAA | 1.01 ± 0.015
TAAAGGACGG | 1.01 ± 0.038
TAAAGGAGGT | 1.01 ± 0.046
TAAAGGATCC | 1.02 ± 0.041
TAAAGGATTC | 0.979 ± 0.045
TAAAGGCGCG | 0.985 ± 0.012
TAAAGGCGGT | 0.983 ± 0.042
TAAAGGGAAA | 1.26 ± 0.37
TAAAGGGAGT | 1 ± 0.024
TAAAGGGATT | 0.994 ± 0.032
TAAAGGGGCT | 1.04 ± 0.049
TAAAGGGGGA | 0.983 ± 0.039
TAAAGGGTAT | 0.988 ± 0.032
TAAAGGTTAC | 1.03 ± 0.028
TAAAGTGTGC | 0.9727 ± 0.0042
TAAAGTGTGG | 0.992 ± 0.027
TAAATAGCTT | 1.08 ± 0.17
TAAATAGGGA | 1.01 ± 0.03
TAAATATCGT | 1 ± 0.013

Sequence | switch fluorescence ratio
TAAATATTGT | 1.01 ± 0.016
TAAATATTTA | 0.976 ± 0.05
TAAATCGGGA | 0.9928 ± 0.0037
TAAATCGGGT | 1 ± 0.013
TAAATGAAGG | 1.04 ± 0.048
TAAATGCGCC | 1.09 ± 0.022
TAAATGGAA | 1 ± 0.024
TAAATGGGTT | 1 ± 0.027
TAAATGGTTC | 0.969 ± 0.027
TAAATGTGTA | 1.01 ± 0.036
TAAATTAAGT | 1.03 ± 0.029
TAAATTATGG | 0.996 ± 0.021
TAAATTATTT | 0.999 ± 0.023
TAAATTTAGG | 0.989 ± 0.02
TAAATTTTGT | 1.02 ± 0.039
TAACAATCGC | 1.06 ± 0.038
TAACACCGGC | 1.06 ± 0.025
TAACACGAAT | 1.01 ± 0.0083
TAACACGGGA | 1.037 ± 0.003
TAACATCTTT | 1.03 ± 0.013
TAACATGAAG | 1.004 ± 0.0073
TAACCCCGCT | 1.42 ± 0.25
TAACCGGTGC | 1.065 ± 0.01

Sequence | switch fluorescence ratio
TAACCTATCT | 1.04 ± 0.033
TAACCTGGAG | 1.18 ± 0.028
TAACCTTTAA | 1.04 ± 0.02
TAACGATGGG | 1.014 ± 0.01
TAACGCATCG | 0.9887 ± 0.0012
TAACGGCGGT | 0.978 ± 0.021
TAACGGGAAT | 0.99 ± 0.02
TAACGGGGCG | 1.01 ± 0.049
TAACGGGGGT | 1.02 ± 0.062
TAACGGGGTA | 1.01 ± 0.02
TAACGTTTTC | 0.983 ± 0.06
TAACGTTTTT | 1.1 ± 0.024
TAACTAATAA | 1.01 ± 0.018
TAACTAATTT | 1.03 ± 0.017
TAACTCTTTT | 0.978 ± 0.044
TAACTGGCTT | 1.01 ± 0.036
TAACTGTCTT | 0.966 ± 0.013
TAAGAAAAAT | 1.062 ± 0.0081
TAAGAAAGGG | 0.9572 ± 0.0095
TAAGAAGTCG | 0.9751 ± 0.0023
TAAGAGGA | 0.991 ± 0.015
TAAGAGGCGG | 1.01 ± 0.052
TAAGATAAAA | 1.02 ± 0.017

Sequence | switch fluorescence ratio
TAAGATGATC | 0.988 ± 0.048
TAAGATGTAA | 1.03 ± 0.011
TAAGCAAATG | 1.038 ± 0.0072
TAAGCAGGGC | 1.068 ± 0.0043
TAAGCAGTTT | 1.038 ± 0.0027
TAAGCGGGGT | 1.012 ± 0.008
TAAGCGGTTG | 0.989 ± 0.016
TAAGCTCGTG | 0.97 ± 0.019
TAAGCTGGCT | 1.025 ± 0.0092
TAAGCTGTGG | 1.02 ± 0.028
TAAGGAGCGG | 0.976 ± 0.013
TAAGGAGTTC | 0.965 ± 0.021
TAAGGCGAGT | 1.03 ± 0.052
TAAGGGAACC | 1.01 ± 0.044
TAAGGGAATC | 1.2 ± 0.31
TAAGGGAGTG | 0.976 ± 0.031
TAAGGGCGCG | 1.03 ± 0.035
TAAGGGCTGA | 1.01 ± 0.011
TAAGGGGGAT | 1.021 ± 0.0082
TAAGGGGGGC | 0.98 ± 0.029
TAAGGGGTAT | 0.985 ± 0.032
TAAGGGGTGG | 0.969 ± 0.028
TAAGGGTGTG | 1 ± 0.023

Sequence | switch fluorescence ratio
TAAGGGTTTC | 1.02 ± 0.066
TAAGGTCATA | 1.034 ± 0.0067
TAAGGTCCGA | 1.021 ± 0.0077
TAAGGTCGGT | 0.966 ± 0.018
TAAGGTGGCC | 1.01 ± 0.013
TAAGGTGGCT | 1.01 ± 0.043
TAAGGTGGGG | 0.987 ± 0.021
TAAGGTGTGA | 1.02 ± 0.038
TAAGGTTGGG | 0.993 ± 0.021
TAAGGTTTGT | 0.988 ± 0.021
TAAGTAGGGC | 1.2 ± 0.18
TAAGTATGTC | 0.995 ± 0.01
TAAGTCATGG | 0.9922 ± 0.0078
TAAGTCATTG | 0.985 ± 0.049
TAAGTCGGAA | 0.996 ± 0.022
TAAGTGACCG | 1.07 ± 0.018
TAAGTGGAC | 1.039 ± 0.0089
TAAGTGGG | 0.9621 ± 0.0055
TAAGTGTGTG | 0.975 ± 0.021
TAAGTGTTTT | 0.994 ± 0.023
TAAGTTAGGG | 0.972 ± 0.029
TAAGTTCCTG | 1 ± 0.026
TAAGTTCGCA | 1.05 ± 0.024

Sequence | switch fluorescence ratio
TAAGTTGGGT | 0.994 ± 0.042
TAAGTTTGTT | 0.997 ± 0.011
TAAGTTTTTA | 1.03 ± 0.023
TAATAAAGTT | 1.02 ± 0.018
TAATAACATG | 0.9691 ± 0.0038
TAATAAGGTG | 1.13 ± 0.23
TAATAATGGG | 1.02 ± 0.042
TAATAATTGT | 1.018 ± 0.0078
TAATAGGGAT | 0.98 ± 0.019
TAATAGGGCA | 1.002 ± 0.007
TAATAGGGCG | 1.01 ± 0.076
TAATATAAAC | 1.002 ± 0.0078
TAATATGGTT | 1.03 ± 0.055
TAATATTGGG | 0.989 ± 0.029
TAATCAGGTA | 1.1 ± 0.02
TAATCAGTGC | 0.998 ± 0.068
TAATCATTGG | 1.01 ± 0.065
TAATCCTGTA | 0.9994 ± 0.003
TAATCGAGGG | 0.9831 ± 0.0091
TAATCTGGCG | 1.026 ± 0.0054
TAATCTTAGG | 0.9838 ± 0.0079
TAATCTTTTT | 1.01 ± 0.021
TAATGAAGCG | 0.993 ± 0.018

Sequence | switch fluorescence ratio
TAATGCAATT | 1.018 ± 0.0064
TAATGCCTGC | 1 ± 0.093
TAATGCGGTT | 1.016 ± 0.004
TAATGCTGTT | 0.997 ± 0.049
TAATGGAAGG | 1 ± 0.024
TAATGGAGGC | 1.05 ± 0.13
TAATGGATGG | 0.966 ± 0.019
TAATGGGGGA | 1.01 ± 0.016
TAATGGGGGG | 0.989 ± 0.037
TAATGTATGA | 0.972 ± 0.04
TAATGTGTCG | 1.021 ± 0.0042
TAATGTTTCG | 0.978 ± 0.013
TAATGTTTTG | 1.01 ± 0.018
TAATTAGAGG | 1.01 ± 0.027
TAATTAGCGC | 1.03 ± 0.016
TAATTAGCGG | 1.01 ± 0.018
TAATTAGGGA | 0.986 ± 0.044
TAATTCAATG | 0.997 ± 0.066
TAATTGCTCG | 1.062 ± 0.0041
